Where two headings read alike, the source gives them in different places.

Data set [1] deals with T1, CELF1 RRM1-2 (UniProt Q92879 1-187). Kind of data set: EMSA. (A gel shift assay detects complexes by their altered migration in electrophoresis.)
Data set [2] concerns the target T2, TDP43 RRM1 (UniProt Q13148 101-192). The data set is described as follows: CG-MALS.
The target in data set [3] is T1, CELF1 RRM1-2. The data set is described as follows: CG-MALS.
Data set [4] has as its target T2, TDP43 RRM1. Kind of data set: CG-MALS. This is another data set of the same source.

T2 sequence (Q13148 101-192): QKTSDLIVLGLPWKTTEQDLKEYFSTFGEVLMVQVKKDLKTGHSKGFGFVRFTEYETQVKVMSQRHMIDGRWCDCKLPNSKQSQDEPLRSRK
T1 sequence (Q92879 1-187): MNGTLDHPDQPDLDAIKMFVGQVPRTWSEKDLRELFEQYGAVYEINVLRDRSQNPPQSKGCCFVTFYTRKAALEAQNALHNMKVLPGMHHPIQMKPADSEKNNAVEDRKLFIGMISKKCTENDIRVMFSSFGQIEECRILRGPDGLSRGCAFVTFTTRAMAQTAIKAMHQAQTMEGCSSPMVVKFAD

With UGUUUGUUUGUUUGUU (ssRNA) [(UGUU)4 ssRNA], the binding result in data set [1] is “binds”.

Usually Kd stands for a measure of binding affinity in units of concentration. A higher Kd goes with lower affinity. GTGTGTGTGTGTGTGTGTGTGTGT (ssDNA) [(GT)12 ssDNA]: the Kd in data set [2] worked out at 1340 ± 120 nM.

As to GUGUGUGUGUGUGUGUGUGUGUGUGUGUGUGUGUGUGUGUGUGU (ssRNA) [(GU)22 ssRNA], in data set [3], the affinity, expressed as Kd, was 390 ± 30 nM.

In data set [4], TGTGTGTGTGTG (ssDNA) [(TG)6 ssDNA] returned a Kd of 10400 ± 3200 nM.

(Values after paper PMC11447847.)
